Results published in paper PMC2910593 (PLoS Biology, 2010).
“And” between values parts separate entries of the source, which are not always exact repeats. Equal entries are not always repeated. Each block holds one molecule with its values, some of them ahead of it.

Legend:
[1] = molecular target: CaMKIIδ/Ca^2+/CaM complex (human) (UniProt Q13557); assay: AUC; sedimentation velocity of the CaMKII/Ca2+/CaM complexes, 4°C, 10 mM HEPES pH 7.5, 300 mM NaCl, 1 mM CaCl2, 5 mM DTT; heterodimer to heterotetramer, KD estimated from the proportions of the peaks
[2] = molecular target: CaMKIIα/Ca^2+/CaM complex (human) (UniProt Q9UQM7); assay: as above
[3] = molecular target: CaMKI catalytic domain (human) (UniProt Q8IU85); assay: ITC; VP-ITC, 10°C, 20 mM HEPES pH 7.5, 150 mM NaCl, 5 mM DTT, 1 mM CaCl2; Ca2+/CaM titrated into the kinase domains, or the peptide titrated into Ca2+/CaM; single binding site model
[4] = molecular target: CaMKIIα catalytic domain (human) (UniProt Q9UQM7); assay: as above
[5] = molecular target: CaMKIIγ catalytic and regulatory domain (human) (UniProt Q13555); assay: as above
[6] = molecular target: CaMKIIβ catalytic domain (human) (UniProt Q13554); assay: as above
[7] = molecular target: CaMKIV catalytic domain (human) (UniProt Q16566); assay: as above
[8] = molecular target: CaMKIIγ oligomerization domain (human); assay: crystal structure; isolated oligomerization domains of human CaMKIIγ (2.7 Å) and CaMKIIδ (2.8 Å)
[9] = molecular target: the molecule itself; assay: as above

Chain of CaMKI catalytic domain (human) (Q8IU85 1-333): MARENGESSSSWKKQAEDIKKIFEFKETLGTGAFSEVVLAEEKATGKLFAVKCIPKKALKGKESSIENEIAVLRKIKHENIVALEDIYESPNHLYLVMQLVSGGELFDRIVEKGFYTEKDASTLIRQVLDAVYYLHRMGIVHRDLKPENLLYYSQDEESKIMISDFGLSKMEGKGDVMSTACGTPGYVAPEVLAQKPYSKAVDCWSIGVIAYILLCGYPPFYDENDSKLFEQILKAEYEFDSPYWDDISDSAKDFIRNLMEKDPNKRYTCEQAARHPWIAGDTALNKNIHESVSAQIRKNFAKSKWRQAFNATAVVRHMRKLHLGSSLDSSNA
Chain of CaMKIV catalytic domain (human) (Q16566 15-340): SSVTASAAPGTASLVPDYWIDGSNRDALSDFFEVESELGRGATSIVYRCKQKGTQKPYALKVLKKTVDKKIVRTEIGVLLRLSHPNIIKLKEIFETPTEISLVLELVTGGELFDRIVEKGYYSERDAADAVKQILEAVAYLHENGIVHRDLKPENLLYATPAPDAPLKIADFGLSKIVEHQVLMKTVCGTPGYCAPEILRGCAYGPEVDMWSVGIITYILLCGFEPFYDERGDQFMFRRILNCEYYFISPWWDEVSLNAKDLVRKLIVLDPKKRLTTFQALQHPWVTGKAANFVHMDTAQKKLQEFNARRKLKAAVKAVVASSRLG
Chain of CaMKIIβ catalytic domain (human) (Q13554 11-302): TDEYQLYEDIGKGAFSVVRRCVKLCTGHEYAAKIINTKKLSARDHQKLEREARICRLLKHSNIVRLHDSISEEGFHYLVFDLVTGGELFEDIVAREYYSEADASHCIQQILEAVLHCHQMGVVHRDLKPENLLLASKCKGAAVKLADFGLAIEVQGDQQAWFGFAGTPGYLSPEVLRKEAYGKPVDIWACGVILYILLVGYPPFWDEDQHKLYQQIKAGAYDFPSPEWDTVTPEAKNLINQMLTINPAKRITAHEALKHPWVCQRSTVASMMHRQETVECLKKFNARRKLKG
Chain of CaMKIIγ catalytic and regulatory domain (human) (Q13555 5-317): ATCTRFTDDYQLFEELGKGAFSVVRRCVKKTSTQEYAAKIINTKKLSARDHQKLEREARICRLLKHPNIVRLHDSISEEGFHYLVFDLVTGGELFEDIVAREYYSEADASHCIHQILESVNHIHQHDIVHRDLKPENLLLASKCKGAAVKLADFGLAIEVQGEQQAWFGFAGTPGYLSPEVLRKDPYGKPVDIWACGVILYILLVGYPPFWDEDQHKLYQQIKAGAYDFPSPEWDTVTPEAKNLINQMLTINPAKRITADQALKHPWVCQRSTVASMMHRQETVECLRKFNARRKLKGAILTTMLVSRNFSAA

Kd [1]: 50 µM
Molecule: CaMKIIδ/Ca^2+/CaM complex (from UniProt Q13557 11-335; P0DP23 1-149)

Kd [2]: 120 µM
Molecule: CaMKIIα/Ca^2+/CaM complex (from UniProt Q9UQM7 13-301; P0DP23 1-149)

dH [3]: -5.8 kcal/mol and -5.1 kcal/mol
stoichiometry N [3]: 0.93
dH [4]: 12.1 kcal/mol
stoichiometry N [4]: 0.863
dH [5]: 8.6 kcal/mol
stoichiometry N [5]: 0.981
dH [6]: 8.9 kcal/mol
stoichiometry N [6]: 0.922
dH [7]: -10.2 kcal/mol
stoichiometry N [7]: 0.83
Molecule: calmodulin (Ca^2+/CaM) (from UniProt P0DP23 1-149) (natural protein)

stoichiometry N [8]: 12
Molecule: CaMKIIγ oligomerization domain (domain or fragment)

B1: CaMKIIδ oligomerization domain (domain or fragment, human, UniProt Q13557 334-475, looked up)
chain: SNTTIEDEDVKARKQEIIKVTEQLIEAINNGDFEAYTKICDPGLTAFEPEALGNLVEGMDFHRFYFENALSKSNKPIHTIILNPHVHLVGDDAACIAYIRLTQYMDGSGMPKTMQSEETRVWHRRDGKWQNVHFHRSGSPTV
stoichiometry N [9]: 14
